Data reported in US20110151454.
Residue numbers refer to the chain shown, from its start. Names and notes keep the numbering of the source.

B1: gst-PPM1J (protein)
chain: MLNRVRSAVAHLVSSGGAPPPRPKSPDLPNAASAPPAAAPEAPRSPPAKAGSGSATPAKAVEARASFSRPTFLQLSPGGLRRADDHAGRAVQSPPDTGRRLPWSTGYAEVINAGKSRHNEDQACCEVVYVEGRRSVTGVPREPSRGQGLCFYYWGLFDGHAGGGAAEMASRLLHRHIREQLKDLVEILQDPSPPPLCLPTTPGTPDSSDPSHLLGPQSCWSSQKEVSHESLVVGAVENAFQLMDEQMARERRGHQVEGGCCALVVIYLLGKVYVANAGDSRAIIVRNGEIIPMSREFTPETERQRLQLLGFLKPELLGSEFTHLEFPRRVLPKELGQRMLYRDQNMTGWAYKKIELEDLRFPLVCGEGKKARVMATIGVTRGLGDHSLKVCSSTLPIKPFLSCFPEVRVYDLTQYEHCPDDVLVLGTDGLWDVTTDCEVAATVDRVLSAYEPNDHSRYTALAQALVLGARGTPRDRGWRLPNNKLGSGDDISVFVIPLGGPGSYS
B2: λ-phosphatase (protein)
chain: MRYYEKIDGSKYRNIWVVGDLHGCYTNLMNKLDTIGFDNKKDLLISVGDLVDRGAENVECLELITFPWFRAVRGNHEQMMIDGLSERGNVNHWLLNGGGWFFNLDYDKEILAKALAHKADELPLIIELVSKDKKYVICHADYPFDEYEFGKPVDHQQVIWNRERISNSQNGIVKEIKGADTFIFGHTPAVKPLKFANQMYIDTGAVFCGNLTLIQVQGEGA
B3: gst-PPM1H (protein)
chain: MLTRVKSAVANFMGGIMAGSSGSEHGGGSCGGSDLPLRFPYGRPEFLGLSQDEVECSADHIARPILILKETRRLPWATGYAEVINAGKSTHNEDQASCEVLTVKKKAGAVTSTPNRNSSKRRSSLPNGEGLQLKENSESEGVSCHYWSLFDGHAGSGAAVVASRLLQHHITEQLQDIVDILKNSAVLPPTCLGEEPENTPANSRTLTRAASLRGGVGAPGSPSTPPTRFFTEKKIPHECLVIGALESAFKEMDLQIERERSSYNISGGCTALIVICLLGKLYVANAGDSRAIIIRNGEIIPMSSEFTPETERQRLQYLAFMQPHLLGNEFTHLEFPRRVQRKELGKKMLYRDFNMTGWAYKTIEDEDLKFPLIYGEGKKARVMATIGVTRGLGDHDLKVHDSNIYIKPFLSSAPEVRIYDLSKYDHGSDDVLILATDGLWDVLSNEEVAEAITQFLPNCDPDDPHRYTLAAQDLVMRARGVLKDRGWRISNDRLGSGDDISVYVIPLIHGNKLS
B4: flag-PPM1H-H153L (protein)
chain: B3 chain with H153L
B5: flag-PPM1H (protein)
chain: B3 chain

Assays:
[1] = biological target: HA-tagged p27 phosphorylated at T187 by CDK2/cyclinA, P46527
HA-tagged p27 phosphorylated at T187 by CDK2/cyclinA, P46527, sequence (P46527 whole entry, looked up): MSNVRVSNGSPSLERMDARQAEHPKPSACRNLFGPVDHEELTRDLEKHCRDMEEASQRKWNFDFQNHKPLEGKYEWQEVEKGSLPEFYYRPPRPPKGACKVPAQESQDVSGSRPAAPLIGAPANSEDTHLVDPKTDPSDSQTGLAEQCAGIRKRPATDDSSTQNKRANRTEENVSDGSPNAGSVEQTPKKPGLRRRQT

[2] = biological target: HA-SKP2 phosphorylated in vitro by AKT (32P-SKP2), Q13309
HA-SKP2 phosphorylated in vitro by AKT (32P-SKP2), Q13309, sequence (Q13309 whole entry, looked up): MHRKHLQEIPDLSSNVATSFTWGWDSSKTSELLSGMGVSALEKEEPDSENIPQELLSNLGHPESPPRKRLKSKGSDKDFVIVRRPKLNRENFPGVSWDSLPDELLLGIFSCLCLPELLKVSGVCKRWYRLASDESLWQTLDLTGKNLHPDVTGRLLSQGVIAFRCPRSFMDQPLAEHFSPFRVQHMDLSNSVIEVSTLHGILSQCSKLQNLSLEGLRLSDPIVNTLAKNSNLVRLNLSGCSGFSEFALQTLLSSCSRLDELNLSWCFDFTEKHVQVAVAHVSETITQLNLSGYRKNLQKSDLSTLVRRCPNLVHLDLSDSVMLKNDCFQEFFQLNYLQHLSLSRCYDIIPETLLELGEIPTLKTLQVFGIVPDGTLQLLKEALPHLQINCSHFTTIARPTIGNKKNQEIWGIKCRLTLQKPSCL

Row | Protein | dephosphorylation of p27 at S10 (phosphatase reaction, Western blot) [1] | dephosphorylation of p27 at T187 (phosphatase reaction, Western blot) [1] | removal of 32P from AKT-phosphorylated SKP2 [2] | other results
1 | B1 | Neither enzyme exhibited activity at S10 | only PPM1H was effective at dephosphorylating p27 at T187 | – | –
2 | B2 | – | – | γ-phosphatase was able to dephosphorylate SKP2 | –
3 | B3 | Neither enzyme exhibited activity at S10 | only PPM1H was effective at dephosphorylating p27 at T187 | – | –
4 | B4 | – | Wildtype PPM1H but not PPM1H-H153L dephosphorylated p27 at T187 | – | –
5 | B5 | PPM1H exhibited no activity at the S10 site in this assay | Wildtype PPM1H but not PPM1H-H153L dephosphorylated p27 at T187 | PPM1H lacked activity | phosphate release from synthetic phospho-peptide (Pi ColorLock Gold assay) (SKP2 S64 phospho-peptide): No evidence for PPM1H mediated dephosphorylation of the SKP2 phospho-peptides was observed; phosphate release from synthetic phospho-peptide (Pi ColorLock Gold assay) (p27 T157 phospho-peptide): Liberation of phosphate was observed with the p27 peptides, most notably with the T187 peptide; phosphate release from synthetic phospho-peptide (Pi ColorLock Gold assay) (SKP2 S72 phospho-peptide): No evidence for PPM1H mediated dephosphorylation of the SKP2 phospho-peptides was observed; phosphate release from synthetic phospho-peptide (Pi ColorLock Gold assay) (p27 T187 phospho-peptide): Liberation of phosphate was observed with the p27 peptides, most notably with the T187 peptide; phosphate release from synthetic phospho-peptide (Pi ColorLock Gold assay) (p27 S10 phospho-peptide): Liberation of phosphate was observed with the p27 peptides, most notably with the T187 peptide; phosphate release from synthetic phospho-peptide (Pi ColorLock Gold assay) (SKP2 S75 phospho-peptide): No evidence for PPM1H mediated dephosphorylation of the SKP2 phospho-peptides was observed
